We go through three molecules from patent US20050064533A1 (ADELAIDE RESEARCH AND INNOVATION, published 2005).

Numbering of substitutions follows the chain as printed. Numbers in names are those of the source.

The target of experiment [1] is recombinant MBP (Maltose Binding Protein) alone, negative control (UniProt P0AEX9 27-392 = MBP). In words: pulldown on amylose-agarose resin, autoradiography. As for the experimental part:
(§1) FIG. 8. […] The CAD containing C-terminal 100 amino acids of HIF-2a was in vitro translated in the presence of ³⁵S-methionine. […] The resin mixtures were washed before the pulled down proteins were analysed by SDS-PAGE and autoradiography. Lanes 1-3 show 10% of the input translation mixtures.
(§2) Samples were centrifuged 1500 rpm, 30 secs (room temp) to pellet resin, and the supernatant discarded. Resin was then washed three times with 1 ml of the binding buffer. […] After centrifuging 30 secs/1500 rpm, 30 ul of the supernatant was separated by electrophoresis through a 12.5 % polyacrylamide gel. The gel was dried and exposed to autoradiography.

Experiment [2] has as its target T1, MBP (maltose binding protein) fused to wild type HIF Asparagine Hydroxylase (HNH) (UniProt Q9NWT6 1-349).
T1 construct: also called MBP-HNH; MBP/FIH-1
In words: pulldown on amylose-agarose resin, autoradiography. As for the experimental part: as §1, §2

T1 sequence (Q9NWT6 whole entry, the tested form may be a part): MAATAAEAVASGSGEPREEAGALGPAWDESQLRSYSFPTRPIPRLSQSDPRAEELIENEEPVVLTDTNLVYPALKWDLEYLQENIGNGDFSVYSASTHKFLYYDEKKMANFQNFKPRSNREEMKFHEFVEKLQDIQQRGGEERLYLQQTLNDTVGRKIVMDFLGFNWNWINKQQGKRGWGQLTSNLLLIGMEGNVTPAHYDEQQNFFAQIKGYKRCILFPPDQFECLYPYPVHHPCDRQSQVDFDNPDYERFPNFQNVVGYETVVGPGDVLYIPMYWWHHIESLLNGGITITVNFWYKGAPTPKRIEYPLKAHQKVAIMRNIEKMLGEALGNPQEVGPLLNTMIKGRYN

B1: C-terminal 100 amino acids of mouse HIF-2a (775-874), wild type, with N-terminal thioredoxin/6-histidine tag (other)
chain: RGLGQPLRHLPPPQPPSTRSSGENAKTGFPPQCYASQFQDYGPPGAQKVSGVASRLLGPSFEPYLLPELTRYDCEVNVPVPGSSTLLQGRDLLRALDQAT
modifications: in vitro translated in the presence of 35S-methionine (radiolabelled Met)
notes: range 775-874; also called HIF-2a CAD; wild type CAD; not shown: N-terminal thioredoxin/6-histidine tag supplied by the pET32 vector
Regarding B1, the binding result in experiment [1] is recorded as “no binding”.

B2: C-terminal 100 amino acids of mouse HIF-2a (775-874), mutant RLL to AAA, with N-terminal thioredoxin/6-histidine tag (other, UniProt P97481 775-874, looked up)
chain: B1 chain with R55A, L56A, L57A
modifications: in vitro translated in the presence of 35S-methionine (radiolabelled Met)
notes: range 775-874; also called RLL to AAA triple mutant CAD; not shown: N-terminal thioredoxin/6-histidine tag supplied by the pET32 vector
For B2, the binding result in experiment [1] and in experiment [2] was “no binding” each time.

B3: C-terminal 100 amino acids of mouse HIF-2a (775-874), mutant N851A, with N-terminal thioredoxin/6-histidine tag (other)
chain: B1 chain with N77A
modifications: in vitro translated in the presence of 35S-methionine (radiolabelled Met)
notes: range 775-874; also called N851A point mutant CAD; not shown: N-terminal thioredoxin/6-histidine tag supplied by the pET32 vector
As to B3, the binding result in experiment [1] is listed as “no binding”.
